According to the supplement of paper PMC10065799, “High-throughput profiling of sequence recognition by tyrosine kinases and SH2 domains using bacterial peptide display” (eLife, 2023):

How the values were obtained:
AncSZ = assay: phosphorylation enrichment, bacterial display (enrichment ratio); higher = better substrate or ligand; peptides without Tyr show the background
EPHB1 = EPHB1 (UniProt P54762); assay: as above
EPHB2 = EPHB2 (UniProt P29323); assay: as above
FGFR1 = FGFR1 (UniProt P11362); assay: as above
FGFR3 = FGFR3 (UniProt P22607); assay: as above
Fer (mouse) = assay: as above
Fes = Fes (UniProt P07332); assay: as above
Fyn = Fyn (UniProt P06241); assay: as above
Hck = Hck (UniProt P08631); assay: as above
Jak2 = Jak2 (UniProt O60674); assay: as above
MERTK = MERTK (UniProt Q12866); assay: as above
c-Abl (mouse) = assay: as above
c-Src = assay: as above
Grb2 SH2 = Grb2 SH2 (UniProt P62993); assay: SH2 binding enrichment of the phosphorylated peptide, bacterial display (enrichment ratio); higher = better substrate or ligand; peptides without Tyr show the background
SHP2-C SH2 = assay: as above
c-Src SH2 = assay: as above
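Throughout, for SH2 binding enrichment of the phosphorylated peptide, bacterial display: peptide library displayed on the E. coli surface as eCPX fusions, selected cells deep-sequenced, score is each peptide's frequency after selection divided by its frequency in the input.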
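Throughout, for phosphorylation enrichment, bacterial display: 11-residue human phosphosite peptides and single-mutation variants displayed on the E. coli surface, counted by deep sequencing, each peptide's frequency after selection divided by its frequency in the unselected input library; frequency after pTyr selection over input frequency; kinase dosed for 20-30% of maximal phosphorylation in three min.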

Sequence of Jak2 (O60674 whole entry, looked up): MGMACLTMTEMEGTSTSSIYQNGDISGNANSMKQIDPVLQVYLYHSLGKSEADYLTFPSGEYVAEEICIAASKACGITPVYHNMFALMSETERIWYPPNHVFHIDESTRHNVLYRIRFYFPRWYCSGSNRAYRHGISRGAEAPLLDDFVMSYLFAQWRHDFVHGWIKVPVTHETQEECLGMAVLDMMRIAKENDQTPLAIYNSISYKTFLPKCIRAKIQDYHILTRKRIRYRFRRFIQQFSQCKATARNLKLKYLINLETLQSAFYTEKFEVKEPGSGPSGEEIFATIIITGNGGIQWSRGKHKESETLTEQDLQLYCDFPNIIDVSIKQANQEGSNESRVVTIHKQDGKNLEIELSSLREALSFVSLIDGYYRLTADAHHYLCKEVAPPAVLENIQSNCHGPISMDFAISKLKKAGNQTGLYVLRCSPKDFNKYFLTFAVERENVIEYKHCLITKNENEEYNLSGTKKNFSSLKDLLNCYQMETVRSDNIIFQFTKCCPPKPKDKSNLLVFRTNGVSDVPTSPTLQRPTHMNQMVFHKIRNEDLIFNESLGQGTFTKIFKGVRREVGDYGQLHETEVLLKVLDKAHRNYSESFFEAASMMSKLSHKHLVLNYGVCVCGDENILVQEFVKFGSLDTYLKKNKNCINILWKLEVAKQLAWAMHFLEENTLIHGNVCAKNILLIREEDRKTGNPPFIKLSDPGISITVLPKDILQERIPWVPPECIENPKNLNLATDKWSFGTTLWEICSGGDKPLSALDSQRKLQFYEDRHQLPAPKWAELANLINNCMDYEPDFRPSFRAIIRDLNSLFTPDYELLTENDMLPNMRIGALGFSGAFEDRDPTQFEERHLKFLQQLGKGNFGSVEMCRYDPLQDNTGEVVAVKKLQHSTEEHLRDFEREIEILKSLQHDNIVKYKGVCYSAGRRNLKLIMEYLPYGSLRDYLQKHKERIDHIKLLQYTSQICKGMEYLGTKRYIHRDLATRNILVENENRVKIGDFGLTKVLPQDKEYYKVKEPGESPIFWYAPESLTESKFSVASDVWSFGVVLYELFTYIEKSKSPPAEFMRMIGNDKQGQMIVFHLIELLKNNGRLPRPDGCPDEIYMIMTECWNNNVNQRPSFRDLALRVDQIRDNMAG
Sequence of EPHB2 (P29323 whole entry, looked up): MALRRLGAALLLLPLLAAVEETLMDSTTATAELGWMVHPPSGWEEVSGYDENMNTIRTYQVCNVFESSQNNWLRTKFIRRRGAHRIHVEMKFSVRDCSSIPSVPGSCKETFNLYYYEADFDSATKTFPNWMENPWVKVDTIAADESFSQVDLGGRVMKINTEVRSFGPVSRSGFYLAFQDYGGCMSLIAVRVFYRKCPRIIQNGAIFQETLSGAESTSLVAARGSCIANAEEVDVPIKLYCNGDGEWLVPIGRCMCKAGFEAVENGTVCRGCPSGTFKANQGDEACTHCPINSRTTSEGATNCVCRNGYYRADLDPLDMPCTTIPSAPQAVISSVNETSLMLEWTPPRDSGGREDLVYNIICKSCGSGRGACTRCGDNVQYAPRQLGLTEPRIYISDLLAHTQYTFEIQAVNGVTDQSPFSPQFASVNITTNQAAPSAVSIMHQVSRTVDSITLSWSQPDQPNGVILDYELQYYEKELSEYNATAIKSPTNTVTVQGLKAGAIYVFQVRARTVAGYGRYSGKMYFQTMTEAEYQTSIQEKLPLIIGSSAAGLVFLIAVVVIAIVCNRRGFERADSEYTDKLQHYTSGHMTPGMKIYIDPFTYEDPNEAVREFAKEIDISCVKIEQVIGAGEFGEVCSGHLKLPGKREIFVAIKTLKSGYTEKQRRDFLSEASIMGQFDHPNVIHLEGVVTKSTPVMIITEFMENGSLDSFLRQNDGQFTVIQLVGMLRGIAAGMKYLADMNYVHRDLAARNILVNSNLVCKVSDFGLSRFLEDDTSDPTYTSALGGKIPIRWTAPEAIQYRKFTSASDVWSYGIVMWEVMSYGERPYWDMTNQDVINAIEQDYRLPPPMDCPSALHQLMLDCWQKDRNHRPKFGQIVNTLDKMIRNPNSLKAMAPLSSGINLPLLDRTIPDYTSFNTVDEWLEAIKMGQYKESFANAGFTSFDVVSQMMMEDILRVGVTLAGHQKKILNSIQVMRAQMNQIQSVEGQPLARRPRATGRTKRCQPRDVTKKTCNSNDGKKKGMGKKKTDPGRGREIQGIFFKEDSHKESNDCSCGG
Sequence of FGFR1 (P11362 whole entry, looked up): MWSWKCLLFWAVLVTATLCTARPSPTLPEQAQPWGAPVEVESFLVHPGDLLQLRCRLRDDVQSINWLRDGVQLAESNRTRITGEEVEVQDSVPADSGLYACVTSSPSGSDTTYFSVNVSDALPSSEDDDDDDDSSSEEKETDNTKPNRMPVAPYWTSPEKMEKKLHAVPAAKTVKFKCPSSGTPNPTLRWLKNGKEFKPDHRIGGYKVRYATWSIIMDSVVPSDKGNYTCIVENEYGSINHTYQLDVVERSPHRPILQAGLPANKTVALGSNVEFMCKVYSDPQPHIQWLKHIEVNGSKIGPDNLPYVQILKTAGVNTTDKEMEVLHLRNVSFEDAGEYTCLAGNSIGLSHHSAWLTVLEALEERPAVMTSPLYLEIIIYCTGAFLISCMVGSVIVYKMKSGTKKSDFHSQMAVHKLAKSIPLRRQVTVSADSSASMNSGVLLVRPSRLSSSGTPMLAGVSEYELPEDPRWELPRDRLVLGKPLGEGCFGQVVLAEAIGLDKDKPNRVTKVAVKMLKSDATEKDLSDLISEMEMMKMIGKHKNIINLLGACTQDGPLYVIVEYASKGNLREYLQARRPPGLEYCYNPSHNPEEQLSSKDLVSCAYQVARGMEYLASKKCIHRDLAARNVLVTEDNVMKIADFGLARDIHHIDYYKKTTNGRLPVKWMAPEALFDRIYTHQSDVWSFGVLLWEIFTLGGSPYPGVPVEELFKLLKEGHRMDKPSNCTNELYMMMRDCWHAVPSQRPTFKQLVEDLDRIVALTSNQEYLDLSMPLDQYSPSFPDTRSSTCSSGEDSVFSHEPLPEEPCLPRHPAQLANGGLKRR
Sequence of Fyn (P06241 whole entry, looked up): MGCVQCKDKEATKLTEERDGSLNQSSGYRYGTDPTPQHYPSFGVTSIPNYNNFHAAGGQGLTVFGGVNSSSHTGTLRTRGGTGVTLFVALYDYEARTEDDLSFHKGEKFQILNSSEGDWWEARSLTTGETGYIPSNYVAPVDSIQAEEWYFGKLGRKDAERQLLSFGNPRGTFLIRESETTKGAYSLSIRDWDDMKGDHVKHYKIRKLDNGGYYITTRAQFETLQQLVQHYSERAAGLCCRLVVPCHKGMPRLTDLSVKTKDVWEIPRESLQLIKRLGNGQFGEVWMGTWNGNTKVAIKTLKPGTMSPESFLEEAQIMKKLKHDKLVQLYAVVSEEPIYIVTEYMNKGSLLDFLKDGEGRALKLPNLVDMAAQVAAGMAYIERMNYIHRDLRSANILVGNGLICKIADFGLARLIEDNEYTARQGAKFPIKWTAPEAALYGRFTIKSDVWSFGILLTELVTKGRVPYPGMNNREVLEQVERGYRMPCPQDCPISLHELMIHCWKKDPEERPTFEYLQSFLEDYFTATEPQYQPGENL
Sequence of FGFR3 (P22607 whole entry, looked up): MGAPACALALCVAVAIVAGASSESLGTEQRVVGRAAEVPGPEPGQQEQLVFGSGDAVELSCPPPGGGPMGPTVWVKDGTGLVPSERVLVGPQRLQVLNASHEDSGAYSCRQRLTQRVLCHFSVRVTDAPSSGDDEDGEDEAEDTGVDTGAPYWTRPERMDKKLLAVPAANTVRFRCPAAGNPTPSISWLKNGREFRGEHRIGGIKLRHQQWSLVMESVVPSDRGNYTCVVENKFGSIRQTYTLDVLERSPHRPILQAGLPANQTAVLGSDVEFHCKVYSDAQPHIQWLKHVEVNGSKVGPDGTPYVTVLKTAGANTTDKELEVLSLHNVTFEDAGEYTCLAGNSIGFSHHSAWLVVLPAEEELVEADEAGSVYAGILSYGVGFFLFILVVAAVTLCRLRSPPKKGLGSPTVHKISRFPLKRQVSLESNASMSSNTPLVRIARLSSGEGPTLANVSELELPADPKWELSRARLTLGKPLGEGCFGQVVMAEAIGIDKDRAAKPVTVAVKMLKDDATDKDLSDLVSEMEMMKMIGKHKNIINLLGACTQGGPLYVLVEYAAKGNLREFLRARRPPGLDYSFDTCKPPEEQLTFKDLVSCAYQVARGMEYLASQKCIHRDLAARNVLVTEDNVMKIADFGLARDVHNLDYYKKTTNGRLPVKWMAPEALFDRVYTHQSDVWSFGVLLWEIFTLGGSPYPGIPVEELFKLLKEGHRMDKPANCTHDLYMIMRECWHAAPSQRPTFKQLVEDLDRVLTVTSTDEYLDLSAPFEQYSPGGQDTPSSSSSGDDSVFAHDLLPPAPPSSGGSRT
Sequence of Hck (P08631 whole entry, looked up): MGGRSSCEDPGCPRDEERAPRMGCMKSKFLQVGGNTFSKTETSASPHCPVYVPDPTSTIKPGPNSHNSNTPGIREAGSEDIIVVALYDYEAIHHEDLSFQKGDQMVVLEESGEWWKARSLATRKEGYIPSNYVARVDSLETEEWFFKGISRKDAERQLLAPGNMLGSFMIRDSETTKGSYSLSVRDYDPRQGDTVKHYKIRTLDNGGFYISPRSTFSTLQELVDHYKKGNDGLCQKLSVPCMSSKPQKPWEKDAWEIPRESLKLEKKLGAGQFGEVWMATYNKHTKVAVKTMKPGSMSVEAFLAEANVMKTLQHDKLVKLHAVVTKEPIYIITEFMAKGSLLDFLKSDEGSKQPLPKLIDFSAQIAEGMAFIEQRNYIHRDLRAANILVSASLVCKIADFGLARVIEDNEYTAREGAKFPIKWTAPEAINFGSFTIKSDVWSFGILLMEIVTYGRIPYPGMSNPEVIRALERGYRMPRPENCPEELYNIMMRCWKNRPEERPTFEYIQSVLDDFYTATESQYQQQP

Row | SH2 binding enrichment (Grb2 SH2) | SH2 binding enrichment (SHP2-C SH2) | SH2 binding enrichment (c-Src SH2) | Sequence | phosphorylation enrichment (AncSZ) | phosphorylation enrichment (EPHB1) | phosphorylation enrichment (EPHB2) | phosphorylation enrichment (FGFR1) | phosphorylation enrichment (FGFR3) | phosphorylation enrichment (Fer (mouse)) | phosphorylation enrichment (Fes) | phosphorylation enrichment (Fyn) | phosphorylation enrichment (Hck) | phosphorylation enrichment (Jak2) | phosphorylation enrichment (MERTK) | phosphorylation enrichment (c-Abl (mouse)) | phosphorylation enrichment (c-Src)
1 | 0.779 | 0.662 | 0.557 | SDGHEYIYVDP [PDGFRB_Y579] | 3.82 | 2.17 | 1.72 | 8.64 | 5.43 | 1.66 | 0.988 | 1.07 | 1.2 | 1.62 | 0.92 | 1.6 | 2
2 | 1.45 | 1.73 | 0.43 | HHTDEYEFDEL [TGM1_Y134_YF] | 1.38 | 0.909 | 0.936 | 1.07 | 0.852 | 0.622 | 1.3 | 0.725 | 0.697 | 1.09 | 0.445 | 0.96 | 0.745
3 | 0.867 | 0.731 | 0.676 | FGSIMYEFVGK [SLC18A1_Y251_V249I] | 1.12 | 1.73 | 1.04 | 0.658 | 0.652 | 9.41 | 0.983 | 1.09 | 5.05 | 0.703 | 6.29 | 0.508 | 1.44
4 | 0.664 | 0.809 | 0.431 | EQKKYYNAMKN [SCN5A_Y1495_K1500N] | 0.507 | 0.388 | 0.335 | 0.336 | 0.382 | 0.354 | 0.536 | 0.292 | 0.405 | 0.489 | 0.356 | 0.489 | 0.359
5 | 0.724 | 0.789 | 0.738 | DVMDLYKTLRG [NR3C1_Y30_F29L] | 0.773 | 0.483 | 0.535 | 0.585 | 0.861 | 0.381 | 0.776 | 0.437 | 0.904 | 0.517 | 0.431 | 0.521 | 0.421
6 | 0.772 | 0.758 | 0.86 | EQKRFYNAMKK [SCN5A_Y1495_K1493R_YF] | 0.69 | 0.562 | 0.309 | 0.369 | 0.415 | 0.35 | 0.711 | 0.363 | 0.342 | 0.562 | 0.387 | 0.698 | 0.441
7 | 0.876 | 0.558 | 0.569 | PVVKLYATDGR [RP1_Y199] | 0.781 | 0.745 | 0.78 | 0.648 | 0.802 | 0.575 | 1.01 | 0.601 | 0.554 | 0.781 | 0.451 | 0.781 | 0.576
8 | 0.739 | 0.546 | 0.404 | MHDSNYVSKGS [PDGFRA_Y849] | 0.648 | 0.388 | 0.416 | 0.501 | 0.459 | 0.393 | 0.73 | 0.535 | 0.554 | 0.55 | 0.451 | 0.508 | 0.482
9 | 1.19 | 1.04 | 0.947 | KDHRDYKFQPR [SOX9_Y172_P170R_YF] | 0.543 | 0.426 | 0.346 | 0.462 | 0.471 | 0.388 | 0.586 | 0.49 | 0.421 | 0.51 | 0.583 | 0.683 | 0.423
10 | 0.634 | 0.446 | 0.421 | FSDQVYRQRRK [TH_Y230] | 0.853 | 0.557 | 0.663 | 0.474 | 0.568 | 0.551 | 0.787 | 0.615 | 0.493 | 0.658 | 0.649 | 0.735 | 0.774
11 | 0.839 | 0.815 | 0.806 | DFPGNYSGFDD [POLR1C_Y33_YF] | 0.858 | 0.927 | 0.531 | 0.456 | 0.637 | 0.408 | 0.899 | 0.55 | 0.481 | 0.676 | 0.376 | 0.588 | 0.548
12 | 0.745 | 0.719 | 0.543 | ISRDVYSTDYY [NTRK2_Y702_M697I] | 1.83 | 2.43 | 2.51 | 4.9 | 3.13 | 0.703 | 1.04 | 3.34 | 1.95 | 1.12 | 6.57 | 0.69 | 4.67
13 | 0.924 | 0.564 | 0.558 | QNTADYFDLFG [PTPN11_Y62_G60A_YF] | 5.82 | 15.8 | 13.8 | 17.9 | 16.9 | 0.951 | 1.53 | 1.32 | 0.722 | 6.89 | 0.691 | 1.13 | 0.693

The next lines start with the sequence.

Row | Sequence | SH2 binding enrichment (Grb2 SH2) | SH2 binding enrichment (SHP2-C SH2) | SH2 binding enrichment (c-Src SH2) | phosphorylation enrichment (AncSZ) | phosphorylation enrichment (EPHB1) | phosphorylation enrichment (EPHB2) | phosphorylation enrichment (FGFR1) | phosphorylation enrichment (FGFR3) | phosphorylation enrichment (Fer (mouse)) | phosphorylation enrichment (Fes) | phosphorylation enrichment (Fyn) | phosphorylation enrichment (Hck) | phosphorylation enrichment (Jak2) | phosphorylation enrichment (MERTK) | phosphorylation enrichment (c-Abl (mouse)) | phosphorylation enrichment (c-Src)
14 | VEDQFYCVDCF [FHL1_Y208_YF] | 1.71 | 1.64 | 1.32 | 1.61 | 0.748 | 0.697 | 0.703 | 0.863 | 0.874 | 1.29 | 1.44 | 0.926 | 1.35 | 5.12 | 0.867 | 1.73
15 | EDSEFYKAFEE [CASQ2_Y179_YF] | 0.767 | 0.671 | 0.506 | 1.2 | 0.534 | 0.659 | 0.482 | 0.739 | 0.4 | 1.21 | 0.442 | 0.543 | 1.07 | 0.454 | 0.693 | 0.567
16 | VGTTAYVAPEA [IRAK4_Y354_M355V] | 0.938 | 0.76 | 0.605 | 0.888 | 0.558 | 0.445 | 0.412 | 0.507 | 0.424 | 0.911 | 0.392 | 0.41 | 0.79 | 0.427 | 0.653 | 0.433
17 | PQGVGYPPQQQ [EP300_Y2219] | 0.92 | 0.685 | 0.428 | 0.962 | 0.44 | 0.619 | 0.897 | 0.871 | 0.46 | 1.17 | 0.573 | 0.612 | 0.915 | 0.619 | 0.655 | 0.579
18 | SSNTEYLSASD [INSR_Y999_P997T] | 0.689 | 0.573 | 0.547 | 0.884 | 0.393 | 0.573 | 0.518 | 0.615 | 0.48 | 0.746 | 0.52 | 0.501 | 0.82 | 0.435 | 0.556 | 0.474
19 | RVKPIYFHTQG [AR_Y916_K911R] | 2.11 | 1.67 | 1.53 | 1.16 | 0.644 | 0.804 | 0.706 | 0.765 | 0.764 | 1.69 | 0.642 | 0.622 | 1.6 | 0.763 | 1.04 | 0.952
20 | MHLRQYELLGG [GNAS_Y391] | 0.868 | 0.689 | 7.91 | 0.663 | 0.75 | 0.453 | 0.558 | 0.705 | 0.507 | 0.869 | 0.464 | 0.506 | 0.634 | 0.773 | 0.541 | 0.516
21 | FPKARYRWLVL [APTX_Y214_H215R_YF] | 0.909 | 0.568 | 0.575 | 0.715 | 0.448 | 0.371 | 0.533 | 0.534 | 0.352 | 0.72 | 0.386 | 0.407 | 0.717 | 0.494 | 0.534 | 0.436
22 | CSRCFYQLTKL [AR_Y858_R856C] | 1.24 | 1.52 | 1.18 | 0.864 | 0.45 | 0.459 | 0.601 | 0.587 | 1.85 | 0.904 | 0.429 | 0.362 | 0.728 | 0.55 | 0.564 | 1.14
23 | PPTYRYERGSR [INPPL1_Y663] | 0.613 | 0.363 | 0.426 | 0.509 | 0.302 | 0.442 | 0.56 | 0.419 | 0.22 | 0.616 | 0.449 | 0.533 | 0.286 | 0.465 | 0.61 | 0.39
24 | DDEESYENVPR [FCRL3_Y722_N721S] | 0.935 | 0.77 | 0.672 | 1.12 | 0.466 | 0.548 | 0.475 | 0.666 | 0.427 | 0.969 | 0.516 | 0.481 | 1.06 | 0.47 | 0.687 | 0.462
25 | KIIRRYVSSEG [ANK2_Y3907] | 0.637 | 0.533 | 0.421 | 0.509 | 0.321 | 0.358 | 0.384 | 0.34 | 0.365 | 0.479 | 0.41 | 0.371 | 0.531 | 0.351 | 0.416 | 0.458
26 | GGSSPYSRRLA [CDK13_Y351_P356A] | 0.875 | 1.11 | 0.617 | 0.626 | 0.363 | 0.326 | 0.356 | 0.395 | 0.344 | 0.565 | 0.426 | 0.425 | 0.512 | 0.443 | 0.567 | 0.468
27 | LGIDRYHAIVY [NPSR1_Y147_S143G] | 0.823 | 0.818 | 5.09 | 0.717 | 0.443 | 0.523 | 2.82 | 1.84 | 0.408 | 0.814 | 0.442 | 0.683 | 0.775 | 0.446 | 0.437 | 0.621
28 | KDQGGYAMHQD [MAPT_Y29_T30A] | 0.805 | 0.399 | 0.485 | 0.677 | 0.406 | 0.476 | 0.329 | 0.574 | 0.419 | 0.798 | 0.392 | 0.471 | 0.528 | 0.426 | 0.557 | 0.487
29 | GVFSRYFTTFD [CLCA1_Y661_YF] | 0.891 | 0.789 | 0.395 | 0.954 | 0.458 | 0.512 | 0.468 | 0.631 | 0.433 | 0.959 | 0.438 | 0.661 | 1.15 | 0.393 | 0.679 | 0.481
30 | NNHGNYIVLLG [ETFDH_Y172_R175L] | 0.983 | 1.14 | 0.587 | 0.979 | 7.55 | 3.86 | 2.81 | 1.71 | 0.363 | 0.902 | 0.458 | 0.433 | 0.833 | 1.66 | 0.644 | 0.522
31 | ILGRTYYVNHE [NEDD4_Y627] | 6.67 | 2.73 | 1.41 | 0.928 | 0.607 | 0.539 | 0.485 | 0.682 | 0.507 | 0.941 | 0.368 | 0.632 | 0.705 | 0.368 | 0.725 | 0.68
32 | MPPHICAITDT [MYH9_Y151_Y151C] | 1.1 | 0.706 | 0.657 | 0.809 | 0.628 | 0.53 | 0.578 | 0.685 | 0.631 | 1.1 | 0.51 | 0.538 | 0.981 | 0.473 | 1.34 | 0.529
33 | VLDSHYPEDEV [C1QBP_Y188_C186S] | 1.06 | 0.697 | 0.573 | 1.33 | 0.611 | 0.564 | 0.52 | 0.736 | 0.51 | 1.26 | 0.473 | 0.516 | 1.16 | 0.488 | 0.746 | 0.525
